Laboratory results taken from patent US20210128616A1.

Biological target: CD19 (UniProt P15391)
Experiment: cell-based or functional assay

Chain of UniProt P15391 (P15391 20-291 limits assumed): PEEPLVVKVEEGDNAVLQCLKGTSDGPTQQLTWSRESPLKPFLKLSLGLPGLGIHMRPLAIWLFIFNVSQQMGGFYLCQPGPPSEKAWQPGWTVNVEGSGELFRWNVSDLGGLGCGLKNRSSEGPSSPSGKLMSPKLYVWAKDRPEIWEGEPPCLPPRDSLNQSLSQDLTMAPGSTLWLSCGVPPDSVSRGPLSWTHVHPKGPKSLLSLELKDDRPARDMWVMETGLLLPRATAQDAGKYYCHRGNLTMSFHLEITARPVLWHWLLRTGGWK

anti-CD19 chimeric antigen receptor (CAR) with an anti-CD19 scFv derived from murine antibody FMC63 (VL-linker-VH orientation), an immunoglobulin-derived spacer, a CD28-derived transmembrane domain, a 4-1BB costimulatory region and a CD3-zeta intracellular signaling domain
relative standard deviation among lots of a parameter indicative of TNFα production by CD4+ CAR+ T cells after stimulation with CD19: 37%
relative standard deviation among lots of a parameter indicative of TNFα production by CD8+ CAR+ T cells after stimulation with CD19: 51%
